According to article PMC5861439 (Nucleic Acids Research, 2017):

Assays:
[1] = test system: Rtt109; settings: ref [13–14],[21–22]; cited from earlier work
[2] = test system: 15N-labeled H3 in the H3:H4 complex; test: NMR 15N-HSQC CSPs of 15N-labeled histone H3 in the H3:H4 complex; format: binding, Xenopus laevis; settings: Rtt109 added to Asf1–H3:H4 (15N-labeled H3); 50 mM sodium citrate pH 6.2, 150 mM NaCl, 5 mM BME, 600 MHz, 298 K
[3] = test system: Asf1–H3:H4 complex; test: NMR 13C-HMQC; format: binding, Asf1 Saccharomyces cerevisiae; histones Xenopus laevis; settings: Rtt109 added to Asf1–H3:H4–Vps75_2; 50 mM sodium citrate pH 6.5, 150 mM NaCl, 5 mM BME, 850 MHz, 298 K

Asf1: Saccharomyces cerevisiae Asf1 (2–169), histone-specific chaperone
acetyltransferase activity alone / activation of Rtt109 by chaperones (in words) [1]: strongly activated

Rtt109: full-length Saccharomyces cerevisiae Rtt109, fungal histone acetyltransferase
competition with the H3 tail for Asf1 (in words) [2]: can out-compete the H3 tail for the same interaction surface on Asf1 | acetyltransferase activity alone / activation of Rtt109 by chaperones (in words) [1]: very low acetyltransferase activity | Asf1 CSPs upon addition of Rtt109 in the presence of Vps75 (in words) [3]: large Asf1 CSPs

Vps75_2: Vps75 homodimer, histone chaperone (Saccharomyces cerevisiae)
acetyltransferase activity alone / activation of Rtt109 by chaperones (in words) [1]: strongly activated
